Numbering of substitutions follows the chain as printed.

As a reminder, the EC50 is the concentration at which the effect is half-maximal. High values mean weaker potency, low ones greater potency.

The labels stand for the following.
B1: Hu147-22wk (antibody, human IgG1, kappa, V domains shown)
VH: EVQLVESGGGLVQPGGSLRLSCAASGFTFNTYAMNWVRQAPGKGLEWVARIRTKSNNYATYYADSVKDRFTISRDDSKNSLYLQMNSLKTEDTAVYYCVETGFAYWDQGTLVTVSS
VL: EIVLTQSPATLSLSPGERATLSCSASSSVSYMHWFQQKPGQSPKLLIYSTSNLASGIPARFSGSGSGTDYTLTISSLEPEDFAVYYCQQRSSYPLTFGQGTKLEIKR
B2: Hu147-14wk (antibody, human IgG1, kappa, V domains shown)
VH: B1 VH with N30S, A49G
VL: DIQMTQSPSSLSASVGDRVTITCSASSSVSYMHWFQQKPGKSPKLLIYSTSNLASGVPSRFSGSGSGTDYTLTISSLQPEDFATYYCQQRSSYPLTFGQGTKLEIKR
B3: Hu147-12wk (antibody, human IgG1, kappa, V domains shown)
VH: B1 VH with N30S, A49G
VL: B1 VL
B4: Hu147-31wk (antibody, human IgG1, kappa, V domains shown)
VH: B1 VH with T28S, K78E, N79S
VL: B1 VL with K44R
B5: Hu147-15wk (antibody, human IgG1, kappa, V domains shown)
VH: B1 VH with N30S, A49G
VL: B2 VL with M4L, L46W
B6: Hu147-23wk (antibody, human IgG1, kappa, V domains shown)
VH: B1 VH
VL: B1 VL with L46W, I57V
B7: Hu147-32wk (antibody, human IgG1, kappa, V domains shown)
VH: B1 VH with T28S, K78E, N79S
VL: B1 VL
B8: Hu147-34wk (antibody, human IgG1, kappa, V domains shown)
VH: B1 VH with T28S, K78E, N79S
VL: B2 VL
B9: Hu147-33wk (antibody, human IgG1, kappa, V domains shown)
VH: B1 VH with T28S, K78E, N79S
VL: B1 VL with L46W, I57V
B10: Hu147-21wk (antibody, human IgG1, kappa, V domains shown)
VH: B1 VH
VL: B1 VL with K44R
B11: Hu147-24wk (antibody, human IgG1, kappa, V domains shown)
VH: B1 VH
VL: B2 VL
B12: Hu147-11wk (antibody, human IgG1, kappa, V domains shown)
VH: B1 VH with N30S, A49G
VL: B1 VL with K44R
B13: Hu147-13wk (antibody, human IgG1, kappa, V domains shown)
VH: B1 VH with N30S, A49G
VL: B1 VL with L46W, I57V
B14: Hu164-68wl (antibody, human IgG1, lambda, V domains shown)
VH: EVTLKESGPVLVKPTETLTLTCTVSGFSLSTFGVHWIRQPPGKGLEWLGVIWRRGGTDYNAAFMSRLTISKDTSKSQVVFTMTNMDPVDTATYYCARDGGFDYWGQGTTVTVSS
VL: ETVVTQEPSFSVSPGGTVTLTCRSSIGAVTTSNYANWVQQTPGQAFRGLIGGTSNRAPGVPDRFSGSILGNKAALTITGAQADDESDYYCALWYSTHYVFGGGTKLTVLG
B15: Hu164-69wl (antibody, human IgG1, lambda, V domains shown)
VH: B14 VH
VL: ESVVTQPPSVSGAPGQRVTISCRSSIGAVTTSNYANWVQQLPGTAFKGLIGGTSNRAPGVPDRFSGSKSGTSASLAITGLQAEDEADYYCALWYSTHYVFGGGTKLTVLG
B16: positive control CTGF antibody mAb1 (antibody, V domains shown)
VH: EGQLVQSGGGLVHPGGSLRLSCAGSGFTFSSYGMHWVRQAPGKGLEWVSGIGTGGGTYSTDSVKGRFTISRDNAKNSLYLQMNSLRAEDMAVYYCARGDYYGSGSFFDCWGQGTLVTVSS
VL: DIQMTQSPSSLSASVGDRVTITCRASQGISSWLAWYQQKPEKAPKSLIYAASSLQSGVPSRFSGSGSGTDFTLTISSLQPEDFATYYCQQYNSYPPTFGQGTKLEIKR
notes: Positive control, from CN1829740B; also called pamrevlumab; FG-3019
B17: Hu164-77wl (antibody, human IgG1, lambda, V domains shown)
VH: EVQLQESGPGLVKPSQTLSLTCTVSGFSISTFGVHWIRQHPGKGLEWIGVIWRRGGTDYNAAFMSRVTISKDTSKNQVSLKLSSVTAADTAVYYCARDGGFDYWGQGTTVTVSS
VL: ETVVTQEPSLTVSPGGTVTLTCRSSIGAVTTSNYANWVQQKPGQAFRGLIGGTSNRAPWTPARFSGSLLGGKAALTLSGVQPEDEAEYYCALWYSTHYVFGGGTKLTVLG
B18: Hu164-87wl (antibody, human IgG1, lambda, V domains shown)
VH: B17 VH with I48L, V67L, L80F
VL: B17 VL
B19: Hu164-67wl (antibody, human IgG1, lambda)
heavy: not shown
light: ETVVTQEPSLTVSPGGTVTLTCRSSIGAVTTSNYANWVQQKPGQAFRGLIGGTSNRAPWTPARFSGSLLGGKAALTLSGVQPEDEAEYYCALWYSTHYVFGGGTKLTVLGQPKANPTVTLFPPSSEELQANKATLVCLISDFYPGAVTVAWKADGSPVKAGVETTKPSKQSNNKYAASSYLSLTPEQWKSHRSYSCQVTHEGSTVEKTVAPTEC
B20: Hu164-57wl (antibody, human IgG1, lambda, V domains shown)
VH: B14 VH with G44A, G49A, F80L
VL: B17 VL

T1 sequence (chain, as listed by the source limits assumed): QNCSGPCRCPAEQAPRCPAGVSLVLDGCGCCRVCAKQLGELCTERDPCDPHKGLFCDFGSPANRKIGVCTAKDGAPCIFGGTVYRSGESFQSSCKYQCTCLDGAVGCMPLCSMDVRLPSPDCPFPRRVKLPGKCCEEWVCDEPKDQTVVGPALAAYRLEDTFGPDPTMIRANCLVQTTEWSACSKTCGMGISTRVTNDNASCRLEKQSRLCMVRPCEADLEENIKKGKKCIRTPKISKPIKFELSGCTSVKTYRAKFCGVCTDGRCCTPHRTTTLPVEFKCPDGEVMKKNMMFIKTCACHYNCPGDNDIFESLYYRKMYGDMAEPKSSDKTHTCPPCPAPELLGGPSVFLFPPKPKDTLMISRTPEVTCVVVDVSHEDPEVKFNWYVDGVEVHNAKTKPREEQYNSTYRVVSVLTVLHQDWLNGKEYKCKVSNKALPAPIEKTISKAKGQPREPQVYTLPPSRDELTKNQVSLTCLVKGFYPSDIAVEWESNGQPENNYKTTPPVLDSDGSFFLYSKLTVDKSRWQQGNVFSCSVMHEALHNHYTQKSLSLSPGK

The test addresses T1, Cynomolgus CTGF-Fc (fusion protein of cynomolgus CTGF coding region with Fc) (cynomolgus).
T1 construct: also called cyno-CTGF-mFc protein; cyno-CTGF protein with Fc tag
Briefly: ELISA, cyno-CTGF-Fc captured by anti-mFc. The protocol: The binding activity of anti-monkey CTGF antibody to monkey CTGF protein was tested by ELISA assay. A 96-well microtiter plate was directly coated with anti-mFc protein, and then the cyno-CTGF protein with Fc tag was bound to the plate, and then the antibody was added. The signal strength upon the addition of the antibody was used to determine the binding activity of the antibody to cyno-CTGF. The specific experimental procedures were as follows:
The anti-mFc Protein (Sigma, Cat No. M4280) was diluted with PBS, pH 7.4 (Shanghai Yuanpei, Cat No. B320) buffer to a concentration of 2 μg/ml, which was added into the 96-well microtiter plate (Corning, Cat No. CLS3590-100EA) at 50 μl/well, and incubated in an incubator at 37° C. for 2 hours. The liquid was removed, 250 μl/well blocking solution (5% skim milk (BD skim milk, Cat No.232100) diluted in PBS) was added, and incubated in an incubator at 37° C. for 3 hours or at 4° C. overnight (16-18 hours) for blocking. After the blocking was finished, the blocking solution was removed, the plate was washed for 3 times with PBST buffer (PBS containing 0.1% Tween-20, pH 7.4), 50 μl of 1 μg/ml cyno-CTGF-mFc protein was added into each well, incubated in an incubator at 37° C. for 1 hour, and then the plate was washed for 3 times with PBST buffer (PBS containing 0.1% Tween-20, pH 7.4). 50 μl/well of various concentrations of each of the test antibodies (antibodies purified from hybridoma or humanized antibodies) diluted with sample dilution solution were added, and incubated in an incubator at 37° C. for 1 hours. After the incubation was finished, the plate was washed for 3 times with PBST, 50 μl/well of HRP-labeled goat anti-mouse secondary antibody (Jackson Immuno Research, Cat No. 115-035-003) or goat anti-human secondary antibody (Jackson Immuno Research, Cat No. 109-035-003) diluted with sample dilution solution was added, and incubated at 37° C. for 1 hour. The plate was washed for 5 times with PBST, 50 μl/well of TMB chromogenic substrate (KPL, Cat No. 52-00-03) was added, incubated at room temperature for 5-10 min, and 50 μl/well of 1 M H₂SO₄ was added to stop the reaction. The absorbance value was read by a microplate reader (Molecular Devices, VERSA max) at a wavelength of 450 nm, and the data was analyzed with GraphPad Prism 5. The binding of CTGF antibody to cyno CTGF protein was calculated as EC50 value.
Molecule B1 displayed an EC50 of 0.073 nM.

B2 showed an EC50 of 0.077 nM.

The molecule B3 had an EC50 of 0.062 nM.

The molecule B4 registered an EC50 of 0.07 nM.

The molecule B5 displayed an EC50 of 0.053 nM.

Turning to B6, the EC50 came to 0.063 nM.

For the molecule B7, a half-maximal effect (EC50) was put at 0.079 nM.

B8 gave an EC50 of 0.144 nM.

Molecule B9 registered an EC50 of 0.044 nM.

Turning to B10, the concentration giving a half-maximal response (EC50) was found to be 0.053 nM.

B11 gave a concentration giving a half-maximal response (EC50) of 0.08 nM.

B12 yielded an EC50 of 0.052 nM.

In turn, B13 showed an EC50 of 0.043 nM.

In turn, B14 came in with an EC50 of 0.036 nM.

B15 returned an EC50 of 0.032 nM.

In the case of B16, the EC50 turned out to be 0.086 nM.

Turning to B17, the EC50 turned out to be 0.038 nM.

In turn, B18 gave an EC50 of 0.034 nM.

As for B19, a half-maximal response (EC50) required 0.028 nM.

In turn, B20 returned an EC50 of 0.029 nM.

Values taken from patent US20220324953A1 (JIANGSU HENGRUI MEDICINE, published 2022).
